± gives the standard deviation of the averaged measurements.
Assay: total protein half-life in vivo (active degradation + dilution); higher = more stable protein
[1] = E. coli NCM3722 delta-clpP delta-lon delta-hslV, growth: N-lim chemostat, doubling time 6 h
[2] = E. coli NCM3722 delta-clpP, growth: N-lim chemostat, doubling time 6 h
[3] = E. coli NCM3722 delta-hslV, growth: N-lim chemostat, doubling time 6 h
[4] = E. coli NCM3722 delta-lon, growth: N-lim chemostat, doubling time 6 h
[5] = E. coli NCM3722 delta-smpB, growth: N-lim chemostat, doubling time 6 h
[6] = wild type E. coli NCM3722, growth: C-lim chemostat, doubling time 3 h
[7] = wild type E. coli NCM3722, growth: C-lim chemostat, doubling time 6 h
[8] = wild type E. coli NCM3722, growth: C-lim chemostat, doubling time 12 h
[9] = wild type E. coli NCM3722, growth: N-lim chemostat, doubling time 6 h
[10] = wild type E. coli NCM3722, growth: N-lim chemostat, doubling time 12 h
[11] = wild type E. coli NCM3722, growth: P-lim chemostat, doubling time 6 h
[12] = wild type E. coli NCM3722, growth: P-lim chemostat, doubling time 12 h

Sequence: MANADLDKQPDSVSSVLKVFGILQALGEEREIGITELSQRVMMSKSTVYRFLQTMKTLGYVAQEGESEKYSLTLKLFELGARALQNVDLIRSADIQMRELSRLTKETIHLGALDEDSIVYIHKIDSMYNLRMYSRIGRRNPLYSTAIGKVLLAWRDRDEVKQILEGVEYKRSTERTITSTEALLPVLDQVREQGYGEDNEEQEEGLRCIAVPVFDRFGVVIAGLSISFPTLRFSEERLQEYVAMLHTAARKISAQMGYHDYPF
- total protein half-life in vivo [1]: 6.07 ± 1.7 h
- total protein half-life in vivo [2]: 6.18 ± 1.6 h
- total protein half-life in vivo [3]: 4.82 ± 0.33 h
- total protein half-life in vivo [4]: 5.09 ± 0.25 h
- total protein half-life in vivo [5]: 5.01 ± 0.17 h
- total protein half-life in vivo [6]: 3.01 ± 0.13 h
- total protein half-life in vivo [7]: 5.91 ± 0.28 h
- total protein half-life in vivo [8]: 10.2 ± 0.83 h
- total protein half-life in vivo [9]: 5.255 ± 0.017 h
- total protein half-life in vivo [10]: 8.11 ± 0.13 h
- total protein half-life in vivo [11]: 5.82 ± 0.61 h
- total protein half-life in vivo [12]: 11.1 ± 0.7 h

Sequence: MANELTWHDVLAEEKQQPYFLNTLQTVASERQSGVTIYPPQKDVFNAFRFTELGDVKVVILGQDPYHGPGQAHGLAFSVRPGIAIPPSLLNMYKELENTIPGFTRPNHGYLESWARQGVLLLNTVLTVRAGQAHSHASLGWETFTDKVISLINQHREGVVFLLWGSHAQKKGAIIDKQRHHVLKAPHPSPLSAHRGFFGCNHFVLANQWLEQRGETPIDWMPVLPAESE
- total protein half-life in vivo [2]: 5.184 ± 0.029 h
- total protein half-life in vivo [3]: 5.26 ± 0.17 h
- total protein half-life in vivo [4]: 5.24 ± 0.29 h
- total protein half-life in vivo [5]: 5.6 ± 0.28 h
- total protein half-life in vivo [6]: 3.1 ± 0.099 h
- total protein half-life in vivo [7]: 5.17 ± 0.19 h
- total protein half-life in vivo [8]: 11.2 ± 2.4 h
- total protein half-life in vivo [9]: 4.89 ± 0.42 h
- total protein half-life in vivo [10]: 10.6 ± 0.65 h
- total protein half-life in vivo [11]: 5.97 ± 0.092 h

Sequence: MANFFIRRPIFAWVLAIILMMAGALAILQLPVAQYPTIAPPAVSVSANYPGADAQTVQDTVTQVIEQNMNGIDNLMYMSSTSDSAGSVTITLTFQSGTDPDIAQVQVQNKLQLATPLLPQEVQQQGISVEKSSSSYLMVAGFVSDNPGTTQDDISDYVASNVKDTLSRLNGVGDVQLFGAQYAMRIWLDADLLNKYKLTPVDVINQLKVQNDQIAAGQLGGTPALPGQQLNASIIAQTRFKNPEEFGKVTLRVNSDGSVVRLKDVARVELGGENYNVIARINGKPAAGLGIKLATGANALDTAKAIKAKLAELQPFFPQGMKVLYPYDTTPFVQLSIHEVVKTLFEAIMLVFLVMYLFLQNMRATLIPTIAVPVVLLGTFAILAAFGYSINTLTMFGMVLAIGLLVDDAIVVVENVERVMMEDKLPPKEATEKSMSQIQGALVGIAMVLSAVFIPMAFFGGSTGAIYRQFSITIVSAMALSVLVALILTPALCATLLKPVSAEHHENKGGFFGWFNTTFDHSVNHYTNSVGKILGSTGRYLLIYALIVAGMVVLFLRLPSSFLPEEDQGVFLTMIQLPAGATQERTQKVLDQVTDYYLKNEKANVESVFTVNGFSFSGQAQNAGMAFVSLKPWEERNGDENSAEAVIHRAKMELGKIRDGFVIPFNMPAIVELGTATGFDFELIDQAGLGHDALTQARNQLLGMAAQHPASLVSVRPNGLEDTAQFKLEVDQEKAQALGVSLSDINQTISTALGGTYVNDFIDRGRVKKLYVQADAKFRMLPEDVDKLYVRSANGEMVPFSAFTTSHWVYGSPRLERYNGLPSMEIQGEAAPGTSSGDAMALMENLASKLPAGIGYDWTGMSYQERLSGNQAPALVAISFVVVFLCLAALYESWSIPVSVMLVVPLGIVGVLLAATLFNQKNDVYFMVGLLTTIGLSAKNAILIVEFAKDLMEKEGKGVVEATLMAVRMRLRPILMTSLAFILGVLPLAISNGAGSGAQNAVGIGVMGGMVSATLLAIFFVPVFFVVIRRCFKG
- total protein half-life in vivo [3]: 5.63 h
- total protein half-life in vivo [10]: 8.2 h

Sequence: MANIEIRQETPTAFYIKVHDTDNVAIIVNDNGLKAGTRFPDGLELIEHIPQGHKVALLDIPANGEIIRYGEVIGYAVRAIPRGSWIDESMVVLPEAPPLHTLPLATKVPEPLPPLEGYTFEGYRNADGSVGTKNLLGITTSVHCVAGVVDYVVKIIERDLLPKYPNVDGVVGLNHLYGCGVAINAPAAVVPIRTIHNISLNPNFGGEVMVIGLGCEKLQPERLLTGTDDVQAIPVESASIVSLQDEKHVGFQSMVEDILQIAERHLQKLNQRQRETCPASELVVGMQCGGSDAFSGVTANPAVGYASDLLVRCGATVMFSEVTEVRDAIHLLTPRAVNEEVGKRLLEEMEWYDNYLNMGKTDRSANPSPGNKKGGLANVVEKALGSIAKSGKSAIVEVLSPGQRPTKRGLIYAATPASDFVCGTQQVASGITVQVFTTGRGTPYGLMAVPVIKMATRTELANRWFDLMDINAGTIATGEETIEEVGWKLFHFILDVASGKKKTFSDQWGLHNQLAVFNPAPVT
- total protein half-life in vivo [1]: 4.25 ± 0.3 h
- total protein half-life in vivo [2]: 2.43 h
- total protein half-life in vivo [6]: 2.1 ± 0.18 h
- total protein half-life in vivo [7]: 3.22 ± 0.48 h
- total protein half-life in vivo [8]: 3.39 ± 0.27 h
- total protein half-life in vivo [12]: 3.6 h

Sequence: MANKPSAEELKKNLSEMQFYVTQNHGTEPPFTGRLLHNKRDGVYHCLICDAPLFHSQTKYDSGCGWPSFYEPVSEESIRYIKDLSHGMQRIEIRCGNCDAHLGHVFPDGPQPTGERYCVNSASLRFTDGENGEEING [P0A746]
- total protein half-life in vivo [2]: 3.48 ± 0.34 h
- total protein half-life in vivo [3]: 3.1 ± 0.16 h
- total protein half-life in vivo [4]: 3.91 ± 0.56 h
- total protein half-life in vivo [5]: 2.55 ± 0.31 h
- total protein half-life in vivo [6]: 1.95 ± 0.59 h
- total protein half-life in vivo [7]: 4.02 ± 0.54 h
- total protein half-life in vivo [8]: 5.47 ± 0.75 h
- total protein half-life in vivo [9]: 3.22 ± 0.13 h
- total protein half-life in vivo [10]: 4.64 ± 0.16 h
- total protein half-life in vivo [11]: 2.79 ± 0.38 h
- total protein half-life in vivo [12]: 6.29 ± 0.15 h

Sequence: MANPLYQKHIISINDLSRDDLNLVLATAAKLKANPQPELLKHKVIASCFFEASTRTRLSFETSMHRLGASVVGFSDSANTSLGKKGETLADTISVISTYVDAIVMRHPQEGAARLATEFSGNVPVLNAGDGSNQHPTQTLLDLFTIQETQGRLDNLHVAMVGDLKYGRTVHSLTQALAKFDGNRFYFIAPDALAMPQYILDMLDEKGIAWSLHSSIEEVMAEVDILYMTRVQKERLDPSEYANVKAQFVLRASDLHNAKANMKVLHPLPRVDEIATDVDKTPHAWYFQQAGNGIFARQALLALVLNRDLVL [P0A786]
- total protein half-life in vivo [1]: 6.1 ± 1.2 h
- total protein half-life in vivo [2]: 4.74 ± 0.28 h
- total protein half-life in vivo [3]: 4.54 ± 0.5 h
- total protein half-life in vivo [4]: 4.9 ± 0.09 h
- total protein half-life in vivo [5]: 5.02 ± 0.63 h
- total protein half-life in vivo [6]: 3.22 ± 0.23 h
- total protein half-life in vivo [7]: 5.83 ± 0.35 h
- total protein half-life in vivo [8]: 10.4 ± 1.8 h
- total protein half-life in vivo [9]: 4.75 ± 0.085 h
- total protein half-life in vivo [10]: 8.23 ± 1.4 h
- total protein half-life in vivo [11]: 5.94 ± 0.21 h
- total protein half-life in vivo [12]: 10.7 ± 0.62 h

Sequence: MANSITADEIREQFSQAMSAMYQQEVPQYGTLLELVADVNLAVLENNPQLHEKMVNADELARLNVERHGAIRVGTAQELATLRRMFAIMGMYPVSYYDLSQAGVPVHSTAFRPIDDASLARNPFRVFTSLLRLELIENEILRQKAAEILRQRDIFTPRCRQLLEEYEQQGGFNETQAQEFVQEALETFRWHQSATVDEETYRALHNEHRLIADVVCFPGCHINHLTPRTLDIDRVQSMMPECGIEPKILIEGPPRREVPILLRQTSFKALEETVLFAGQKQGTHTARFGEIEQRGVALTPKGRQLYDDLLRNAGTGQDNLTHQMHLQETFRTFPDSEFLMRQQGLAWFRYRLTPSGEAHRQAIHPGDDPQPLIERGWVVAQPITYEDFLPVSAAGIFQSNLGNETQTRSHGNASREAFEQALGCPVLDEFQLYQEAEERSKRRCGLL
- total protein half-life in vivo [1]: 4.93 ± 0.48 h
- total protein half-life in vivo [2]: 4.86 ± 2.3 h
- total protein half-life in vivo [3]: 3.34 h
- total protein half-life in vivo [4]: 3.29 ± 0.28 h
- total protein half-life in vivo [5]: 3.09 ± 0.13 h
- total protein half-life in vivo [6]: 1.93 ± 0.29 h
- total protein half-life in vivo [7]: 3.5 ± 0.098 h
- total protein half-life in vivo [8]: 5.086 ± 0.02 h
- total protein half-life in vivo [9]: 3.41 ± 0.23 h
- total protein half-life in vivo [10]: 4.83 ± 0.42 h
- total protein half-life in vivo [11]: 3.15 ± 0.84 h
- total protein half-life in vivo [12]: 6.32 ± 0.42 h
